From article PMC7830388

How the values were obtained:
[1] = target: T1, CopR (Pyrococcus furiosus) (UniProt Q8U2U0); assay: DNase I footprinting; settings: EMSA: 20 nM DNA, 40 mM HEPES pH 7.4, 80 mM (NH4)2SO4, 670 uM DTT, 20 ug/ml BSA, 6.7% glycerol, 50 ng HindIII-digested lambda DNA, 5 min 70 C; DNase I: 4.4 nM …
T1 sequence: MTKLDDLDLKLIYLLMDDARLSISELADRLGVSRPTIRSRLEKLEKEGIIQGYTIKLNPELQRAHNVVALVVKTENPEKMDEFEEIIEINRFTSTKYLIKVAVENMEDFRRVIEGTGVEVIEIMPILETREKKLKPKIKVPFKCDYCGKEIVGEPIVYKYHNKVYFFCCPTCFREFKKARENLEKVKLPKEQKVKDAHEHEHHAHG

[2] = target: T2, TBP;TFB (Pyrococcus furiosus?;Pyrococcus furiosus?) (UniProt P62000+P61998); assay: DNase I footprinting; settings: EMSA: 20 nM DNA, 40 mM HEPES pH 7.4, 80 mM (NH4)2SO4, 670 uM DTT, 20 ug/ml BSA, 6.7% glycerol, 50 ng HindIII-digested lambda DNA, 5 min 70 C; DNase I: 4.4 nM …
T2 sequence 1: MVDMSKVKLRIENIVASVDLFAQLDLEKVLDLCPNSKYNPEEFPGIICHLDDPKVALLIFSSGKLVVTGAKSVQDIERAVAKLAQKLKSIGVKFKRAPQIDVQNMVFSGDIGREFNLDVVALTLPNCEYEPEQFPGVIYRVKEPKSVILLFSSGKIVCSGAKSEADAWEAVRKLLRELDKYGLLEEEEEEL
T2 sequence 2: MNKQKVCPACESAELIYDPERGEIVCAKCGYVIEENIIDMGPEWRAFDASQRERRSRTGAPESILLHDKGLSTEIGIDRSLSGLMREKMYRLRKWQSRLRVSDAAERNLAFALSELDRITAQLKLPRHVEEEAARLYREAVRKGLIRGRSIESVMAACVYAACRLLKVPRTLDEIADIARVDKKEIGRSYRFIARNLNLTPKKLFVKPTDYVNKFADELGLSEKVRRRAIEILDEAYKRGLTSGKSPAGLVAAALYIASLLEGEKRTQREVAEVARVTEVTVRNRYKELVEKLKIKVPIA

[3] = target: CopRΔTRASH (PF0739 variant lacking the metal-sensing TRASH domain) (Pyrococcus furiosus); assay: negative-stain transmission electron microscopy with 2D class averaging; 220 ng/μl protein, 2% uranyl acetate with 0.005% DDM; more than 50,000 particles classified in RELION 3.0; in the absence and presence of a DNA template
[4] = target: CopR (PF0739), copper-sensing transcriptional regulator of Pyrococcus furiosus (Pyrococcus furiosus); assay: SEC; Superdex 200 10/300 GL in low salt buffer (40 mM HEPES pH 7.5, 80 mM ammonium sulfate, 1 mM EDTA, 10% glycerol); elution compared to standard calibration proteins
[5] = target: T1, CopR (Pyrococcus furiosus); assay: EMSA; settings: EMSA: 20 nM DNA, 40 mM HEPES pH 7.4, 80 mM (NH4)2SO4, 670 uM DTT, 20 ug/ml BSA, 6.7% glycerol, 50 ng HindIII-digested lambda DNA, 5 min 70 C; DNase I: 4.4 nM …
[6] = target: T3, CopRΔHIS (Pyrococcus furiosus) (UniProt Q8U2U0); assay: EMSA; settings: EMSA: 20 nM DNA, 40 mM HEPES pH 7.4, 80 mM (NH4)2SO4, 670 uM DTT, 20 ug/ml BSA, 6.7% glycerol, 50 ng HindIII-digested lambda DNA, 5 min 70 C; DNase I: 4.4 nM …
T3 sequence: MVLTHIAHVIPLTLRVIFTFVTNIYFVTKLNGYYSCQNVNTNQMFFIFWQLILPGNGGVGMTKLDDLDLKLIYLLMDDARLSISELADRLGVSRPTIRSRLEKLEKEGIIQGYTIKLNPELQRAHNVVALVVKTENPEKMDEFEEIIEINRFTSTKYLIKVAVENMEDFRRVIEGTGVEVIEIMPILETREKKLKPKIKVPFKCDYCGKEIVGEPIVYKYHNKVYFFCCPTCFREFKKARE

[7] = target: T4, CopRΔHISΔTRASH (Pyrococcus furiosus) (UniProt Q8U2U0); assay: EMSA; settings: EMSA: 20 nM DNA, 40 mM HEPES pH 7.4, 80 mM (NH4)2SO4, 670 uM DTT, 20 ug/ml BSA, 6.7% glycerol, 50 ng HindIII-digested lambda DNA, 5 min 70 C; DNase I: 4.4 nM …
T4 sequence: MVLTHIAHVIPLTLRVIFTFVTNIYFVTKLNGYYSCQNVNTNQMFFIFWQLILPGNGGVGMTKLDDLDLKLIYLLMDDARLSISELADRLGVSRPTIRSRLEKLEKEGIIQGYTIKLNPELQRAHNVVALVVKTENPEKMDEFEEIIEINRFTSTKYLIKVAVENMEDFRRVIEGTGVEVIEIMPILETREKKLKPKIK

[8] = target: T5, CopRΔTRASH internal_change (Pyrococcus furiosus) (UniProt Q8U2U0); assay: EMSA; settings: EMSA: 20 nM DNA, 40 mM HEPES pH 7.4, 80 mM (NH4)2SO4, 670 uM DTT, 20 ug/ml BSA, 6.7% glycerol, 50 ng HindIII-digested lambda DNA, 5 min 70 C; DNase I: 4.4 nM …
T5 sequence: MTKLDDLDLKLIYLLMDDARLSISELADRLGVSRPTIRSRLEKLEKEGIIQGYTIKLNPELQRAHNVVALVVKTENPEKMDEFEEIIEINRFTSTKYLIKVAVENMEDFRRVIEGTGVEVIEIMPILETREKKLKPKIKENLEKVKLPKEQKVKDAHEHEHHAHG

**Q.** For “GAGTGATCTTCACTTTCGTCACCAATATTTACTTTGTGACGAAACTTAATGGGTATTATTCATGCCAAAATGTAAACACTAACCAAATGTTTTTTATATTTTGGCAACTAATACTCCCAGGGAATGGGGGTGTTGGAATGACCAAGTTAGATG (double strand) [copR/copA promoter region (DNase I footprint)]”, which binding [1] is on record?
**A.** binds

**Q.** What about the binding [2] of the same substance?
**A.** binds

**Q.** With “CopRΔTRASH (PF0739 variant lacking the metal-sensing TRASH domain) (natural protein)” as the substance, how does the stoichiometry N [3] read?
**A.** 8

**Q.** For “CopR (PF0739), copper-sensing transcriptional regulator of Pyrococcus furiosus (natural protein)”, which stoichiometry N [4] is on record?
**A.** 8

**Q.** With “GAGTGATCTTCACTTTCGTCACCAATATTTACTTTGTGACGAAACTTAATGGGTATTATTCATGCCAAAATGTAAACACTAACCAAATGTTTTTTATATTTTGGCAACTAATACTCCCAGGGAATGGGGGTGTTGGAATGACCAAGTTAGATG (double strand) [copR/copA intergenic promoter region (EMSA)]” as the substance, how does the binding [5] read?
**A.** binds

**Q.** What about the binding [6] of the same substance?
**A.** binds

**Q.** What about the binding [7] of the same substance?
**A.** binds

**Q.** And the binding [8]?
**A.** binds
